# Source: US20210261685A1 (Alector, published 2021)
# Where a chain is given by its changes, count along the chain named.
# T1: cyno MerTK extracellular domain (ECD), recombinant (cynomolgus monkey, UniProt Q12866 21-505 (human entry))
# T1 construct: also called cynomolgus MerTK; not shown: polyHis tag or TEVS/Thrombin/murine IgG2a Fc tag
# T1 chain: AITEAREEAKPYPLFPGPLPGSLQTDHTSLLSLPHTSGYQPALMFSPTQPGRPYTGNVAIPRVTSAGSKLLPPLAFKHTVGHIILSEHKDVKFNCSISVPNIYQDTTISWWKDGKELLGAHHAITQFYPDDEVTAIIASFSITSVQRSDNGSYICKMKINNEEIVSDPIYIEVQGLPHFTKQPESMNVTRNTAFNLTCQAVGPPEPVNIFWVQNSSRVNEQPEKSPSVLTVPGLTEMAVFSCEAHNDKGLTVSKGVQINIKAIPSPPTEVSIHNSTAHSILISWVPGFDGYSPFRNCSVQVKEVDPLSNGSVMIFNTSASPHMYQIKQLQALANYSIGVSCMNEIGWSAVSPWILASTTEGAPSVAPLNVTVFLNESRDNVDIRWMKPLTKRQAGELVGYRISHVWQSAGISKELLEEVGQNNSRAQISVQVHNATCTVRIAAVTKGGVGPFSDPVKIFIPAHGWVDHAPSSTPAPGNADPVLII
# T2: Recombinant human MerTK human Fc Chimera protein (R&D systems, Cat #391-MR-100) (human, UniProt Q12866 26-499, limits assumed)
# T2 construct: Bought; also called recombinant human MerTK protein; MerTK-Fc
# T2 sequence: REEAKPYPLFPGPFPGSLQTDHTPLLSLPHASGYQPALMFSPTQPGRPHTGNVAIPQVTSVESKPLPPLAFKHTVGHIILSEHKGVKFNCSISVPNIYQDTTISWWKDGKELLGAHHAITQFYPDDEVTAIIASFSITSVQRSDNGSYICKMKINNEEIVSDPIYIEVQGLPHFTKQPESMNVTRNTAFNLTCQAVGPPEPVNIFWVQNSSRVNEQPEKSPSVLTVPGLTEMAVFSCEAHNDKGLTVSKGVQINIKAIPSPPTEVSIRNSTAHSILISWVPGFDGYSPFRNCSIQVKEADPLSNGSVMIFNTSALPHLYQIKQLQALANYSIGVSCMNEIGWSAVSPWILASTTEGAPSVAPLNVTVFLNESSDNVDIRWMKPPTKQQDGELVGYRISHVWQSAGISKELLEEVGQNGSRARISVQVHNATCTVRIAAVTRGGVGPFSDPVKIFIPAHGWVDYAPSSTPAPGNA
# B1: MTK-36 (antibody, human IgG1, V domains shown)
# VH: QVTLKESGPGILQPSQTLSLTCSFSGFSLSTFGMGVGWIRQPSGKGLEWLAHIWWYDDKYYEPALKSRLTISKDSSKNQVFLKIANVDTADTATYYCARIYYGTSYRYFDVWGTGTTVTVSS
# VL: QIVLSQSPAILSAFPGEKVTMTCRATSSVRYMHWYQQKPGSSPKPWIYATYNLTSGVPARFSGSGSGTSYSLTISRVEAEDAATYYCHQWSSNPYTFGGGTKLEIK
# B2: MTK-14 (antibody, human IgG1, V domains shown)
# VH: QIQLVQSGPELKKPGETVKISCKASGYTFTNYGMNWVKQAPGKDLQWMGWINTYTGEPTYADDFTGRFAFSLETSASTAYLQINNLKNEDTATYFCAKGGHYAWFAYWGQGTLVTVSA
# VL: B1 VL with F14S, A25S, T26S, R30S, Y51S, T54A, A59G, H88Q, S91G, Y95R
# B3: MTK-08 (antibody, human IgG1, V domains shown)
# VH: QIQLVQSGPELKKPGETVKISCKASGYTFTNYGMNWVKQAPGKGLKWMGWINTYTGEPTYADDFKGRFAFSLETSASTAYLQINNLKNEDTATYFCAREVRYWYFDVWGAGTTVTVSS
# VL: B1 VL with F14S, R30S, Y35F, Y51S, T54A, T84A, H88Q, Q89H, S92G, Y95R
# B4: MTK-02 (antibody, human IgG1, V domains shown)
# VH: B3 VH with K13Q, N31D, M34V, T55S, D62G, T74S, Y80F, T91M, E99R, T113S
# VL: QIVLSQSPAILSASPGERVTMTCRANSSVSYMHWYQQKPGSSPKPWIYATSNLASGVPARFSASGSGTSYSLTVSRVEAEDAATYYCQQWGSNPFTFGSGTKLEIK
# Target: T1, cyno MerTK extracellular domain (ECD), …
# Experiment: SPR, Carterra LSA, antibody immobilised
# In short: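 Anti-MerTK antibodies diluted to 10 μg/ml in 10 mM Acetate, pH 4.25 were amine-coupled in a 96-spot array onto an HC200M chip activated with MES/sulfo-NHS/EDC, then blocked with 1M Ethanolamine pH 8.5. On a Carterra LSA, recombinant MerTK extracellular domain was injected at 33.3, 100, and 300 nM in HBS-TE with 0.5 mg/ml BSA, lowest to highest without regeneration. KD came from fitted k-on and k-off.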
row,Kd [nM],Binder
1,5.9,B1
2,53,B2
3,42,B3
4,24,B4

# Target: T2, Recombinant human MerTK human Fc …
# Experiment: competition ELISA, His-ProS on captured MerTK-Fc
# In short: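 Blocking IC50 (nM) comes from OD450 curves after TMB development of bound His-tagged ligand detected by HRP-anti-His. Ligand (His-Gas6 at 3 μg/ml, or His-ProS at 20 μg/ml) and titrated antibody (66.6 nM to 4 pM final) were incubated 1 h on MerTK-Fc (2 μg/ml) held by an anti-human IgG capture antibody.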
row,IC50 [nM],Binder
1,1.4,B1
2,7.61,B2
3,3.8,B3
4,3.94,B4
